Data published in article PMC9319256, “Human Enzyme PADI4 Binds to the Nuclear Carrier Importin α3” (Cells, 2022).

Assays:
[1] = target: human importin α3 (Impα3), intact (human); experiment: ITC; PADI4 or peptide (100 µM) in the syringe titrated into importin (10 µM) in the cell; 20 mM Tris pH 7.5, 5 mM TCEP, 150 mM NaCl, 5% glycerol; 25 °C; single-site model
[2] = target: ΔImpα3, truncated importin α3 lacking the importin β-binding (IBB) domain (human); experiment: as above
[3] = target: human importin α3 (Impα3), intact (human); experiment: BLI; BLItz; His-tagged Impα3 or ΔImpα3 immobilised on His-tag biosensors at 0.3 µM; peptides 1-7 µM; manufacturer's buffer; 25 °C; pseudo-first-order plots; apparent
[4] = target: ΔImpα3, truncated importin α3 lacking the importin β-binding (IBB) domain (human); experiment: as above
[5] = target: human importin α3 (Impα3), intact (human); experiment: other fluorescence titration; peptide 0-20 µM added to 3 µM Impα3 or ΔImpα3; 20 mM Tris pH 7.5, 5 mM TCEP, 150 mM NaCl, 5% glycerol; 25 °C; fluorescence at 330 nm
[6] = target: ΔImpα3, truncated importin α3 lacking the importin β-binding (IBB) domain (human); experiment: as above

Sequence of human importin α3 (Impα3), intact (human) (O00629 whole entry, the tested form may be a part): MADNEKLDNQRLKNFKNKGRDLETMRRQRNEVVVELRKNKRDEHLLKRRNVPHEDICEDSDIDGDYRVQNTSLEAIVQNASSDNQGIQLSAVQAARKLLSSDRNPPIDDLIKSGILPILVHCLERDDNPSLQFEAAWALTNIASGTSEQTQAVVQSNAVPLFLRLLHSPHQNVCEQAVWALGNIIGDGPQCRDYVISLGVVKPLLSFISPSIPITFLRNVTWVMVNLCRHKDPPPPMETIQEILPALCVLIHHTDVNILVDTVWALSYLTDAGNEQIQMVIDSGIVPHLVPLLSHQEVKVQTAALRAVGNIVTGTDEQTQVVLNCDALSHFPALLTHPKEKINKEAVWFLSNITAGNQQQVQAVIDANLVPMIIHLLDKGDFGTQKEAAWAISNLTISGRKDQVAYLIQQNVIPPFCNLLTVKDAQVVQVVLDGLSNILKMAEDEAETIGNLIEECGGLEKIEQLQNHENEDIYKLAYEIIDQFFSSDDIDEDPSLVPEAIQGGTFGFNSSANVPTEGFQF

B1: NLS2-PADI4 peptide (peptide)
peptide: Ac-YKLFQEQQNEGHGEALLFEGIKKKKQQKI-NH2
In the case of B1, the Ka [1] is reported as 43000 M⁻¹, the Kd [1] is reported as 23 µM and the dH [1] is reported as -35.7 kcal/mol. The stoichiometry N [1] was 1.08, the Ka [2] was 230000 M⁻¹ and the Kd [2] was 4.3 µM. The dH [2] was -11.2 kcal/mol, the stoichiometry N [2] was 1.1 and the Kd [3] was 99 µM. For the same binder, the koff [3] was 0.32 s⁻¹, the kon [3] was 3000 M⁻¹ s⁻¹ and the Kd [4] was 12 µM. The koff [4] was 0.23 s⁻¹, the kon [4] was 20000 M⁻¹ s⁻¹ and the Kd [5] was 4 µM. The Kd [6] was 4 µM.
